Target: the molecule itself
Assay: native MS

B1: gp3(Δ1–152), C-terminal truncate of P22 terminase small subunit gp3 lacking ten amino acids (domain or fragment, bacteriophage P22, UniProt P04893 1-152, looked up)
chain: MAAPKGNRFWEARSSHGRNPKFESPEALWAACCEYFEWVEANPLWEMKAFSYQGEVIQEPIAKMRAMTITGLTLFIDVTLETWRTYRLREDLSEVVTRAEQVIYDQKFSGAAADLLNANIIARDLGLKEQSQVEDVTPDKGDRDKRRSRIKE
  stoichiometry N: 9

From PMC2577774 (Journal of molecular biology, 2008)
